# Reference: paper PMC6393306
# Where two headings read alike, the source gives them in different places.
# T1: GEN1 1-527 (dimer) (Homo sapiens, UniProt Q17RS7 1-527)
# T1 sequence: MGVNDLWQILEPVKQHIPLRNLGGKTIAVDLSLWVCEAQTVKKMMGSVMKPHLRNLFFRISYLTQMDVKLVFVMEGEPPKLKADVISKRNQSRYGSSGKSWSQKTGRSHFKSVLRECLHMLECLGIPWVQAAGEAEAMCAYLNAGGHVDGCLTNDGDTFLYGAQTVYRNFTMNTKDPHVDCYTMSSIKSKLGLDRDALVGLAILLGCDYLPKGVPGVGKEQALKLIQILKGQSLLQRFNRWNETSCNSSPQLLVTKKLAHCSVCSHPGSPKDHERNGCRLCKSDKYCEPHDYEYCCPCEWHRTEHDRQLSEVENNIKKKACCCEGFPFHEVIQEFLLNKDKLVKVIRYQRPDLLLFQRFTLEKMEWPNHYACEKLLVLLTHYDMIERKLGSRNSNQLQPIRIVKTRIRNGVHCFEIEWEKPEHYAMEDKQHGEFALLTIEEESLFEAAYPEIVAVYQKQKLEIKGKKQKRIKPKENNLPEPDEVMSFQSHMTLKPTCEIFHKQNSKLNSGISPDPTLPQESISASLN
# How the values were obtained:
# GEN1 1-527 (dimer) [1] = molecular target: T1, GEN1 1-527 (dimer); experiment: EMSA
# GEN1 1-527 (dimer) [2] = molecular target: T1, GEN1 1-527 (dimer); experiment: EMSA; remark: listed apart in the source
binder,measurement,setting,value
"X0 (Cy5, EMSA) (structured_DNA) DNA 1: ACGCTGCCGAATTCTACCAGTGCCTTGCTAGGACATCTTTGCCCACCTGCAGGTTCACCC DNA 2: GGGTGAACCTGCAGGTGGGCAAAGATGTCCATCTGTTGTAATCGTCAAGCTTTATGCCGT DNA 3: ACGGCATAAAGCTTGACGATTACAACAGATCATGGAGCTGTCTAGAGGATCCGACTATCG DNA 4: CGATAGTCGGATCCTCTAGACAGCTCCATGTAGCAAGGCACTGGTAGAATTCGGCAGCGT",Kd,GEN1 1-527 (dimer) [1],6.23 nM
same,Kd,GEN1 1-527 (dimer) [2],23.4 nM
